These results are taken from US20130005646A1 (Novo Nordisk, published 2013).

Common to all, as to experiment: cell-based or functional assay
Assay [1] has as its target T1, human amylin 3(a) receptor (human calcitonin receptor co-expressed with RAMP-3) (human) (UniProt P30988).
T1 sequence (looked up) 1: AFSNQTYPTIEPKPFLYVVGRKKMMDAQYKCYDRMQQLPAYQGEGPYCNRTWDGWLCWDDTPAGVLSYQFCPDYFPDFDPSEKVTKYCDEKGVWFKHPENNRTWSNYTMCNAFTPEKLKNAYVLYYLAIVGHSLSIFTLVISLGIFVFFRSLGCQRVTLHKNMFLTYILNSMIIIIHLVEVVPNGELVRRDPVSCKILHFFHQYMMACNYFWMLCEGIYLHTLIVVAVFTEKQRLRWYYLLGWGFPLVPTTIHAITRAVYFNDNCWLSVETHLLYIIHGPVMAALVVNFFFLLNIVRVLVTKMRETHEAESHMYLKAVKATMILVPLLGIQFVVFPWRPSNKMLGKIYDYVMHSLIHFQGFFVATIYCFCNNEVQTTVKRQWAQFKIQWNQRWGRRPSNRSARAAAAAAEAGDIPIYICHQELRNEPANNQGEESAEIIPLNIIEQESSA
T1 sequence (looked up) 2: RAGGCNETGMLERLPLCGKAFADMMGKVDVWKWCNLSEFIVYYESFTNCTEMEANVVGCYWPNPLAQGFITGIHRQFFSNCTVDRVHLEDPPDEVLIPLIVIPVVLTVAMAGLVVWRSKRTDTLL

In assay [2] the target is T2, human amylin 3(a) receptor (human calcitonin receptor with RAMP-3) (human) (UniProt P30988).
T2 sequence (looked up) 1: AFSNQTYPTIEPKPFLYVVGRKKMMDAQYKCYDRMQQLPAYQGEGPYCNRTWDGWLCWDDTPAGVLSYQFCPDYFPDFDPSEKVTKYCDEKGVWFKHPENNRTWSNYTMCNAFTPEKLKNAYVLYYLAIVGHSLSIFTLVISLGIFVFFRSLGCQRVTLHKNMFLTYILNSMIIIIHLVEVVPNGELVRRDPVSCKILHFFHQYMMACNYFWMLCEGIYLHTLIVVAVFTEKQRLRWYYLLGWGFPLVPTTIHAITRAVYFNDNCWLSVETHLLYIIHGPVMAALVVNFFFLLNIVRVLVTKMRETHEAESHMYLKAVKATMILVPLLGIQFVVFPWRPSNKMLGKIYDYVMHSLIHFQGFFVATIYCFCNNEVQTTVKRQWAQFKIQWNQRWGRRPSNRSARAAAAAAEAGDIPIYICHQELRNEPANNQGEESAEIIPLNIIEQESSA
T2 sequence (looked up) 2: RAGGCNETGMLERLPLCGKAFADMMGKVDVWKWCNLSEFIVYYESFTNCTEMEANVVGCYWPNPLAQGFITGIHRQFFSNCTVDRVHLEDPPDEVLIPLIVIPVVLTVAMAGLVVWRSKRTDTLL

Assay [3] concerns the target T3, human amylin 3(a) receptor (human calcitonin receptor + RAMP-3) (human) (UniProt P30988).
T3 sequence (looked up) 1: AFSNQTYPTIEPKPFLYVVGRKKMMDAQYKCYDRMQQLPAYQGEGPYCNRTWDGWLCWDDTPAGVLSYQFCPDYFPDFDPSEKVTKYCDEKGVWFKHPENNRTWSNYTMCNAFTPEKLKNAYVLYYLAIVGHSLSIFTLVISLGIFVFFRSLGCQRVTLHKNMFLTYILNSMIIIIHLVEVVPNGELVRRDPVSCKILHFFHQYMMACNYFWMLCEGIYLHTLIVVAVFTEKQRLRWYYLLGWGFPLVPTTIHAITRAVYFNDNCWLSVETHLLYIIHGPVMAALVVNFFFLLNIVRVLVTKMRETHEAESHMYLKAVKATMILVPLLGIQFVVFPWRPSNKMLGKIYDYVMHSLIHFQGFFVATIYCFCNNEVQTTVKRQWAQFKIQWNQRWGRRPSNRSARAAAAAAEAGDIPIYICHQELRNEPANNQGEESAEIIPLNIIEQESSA
T3 sequence (looked up) 2: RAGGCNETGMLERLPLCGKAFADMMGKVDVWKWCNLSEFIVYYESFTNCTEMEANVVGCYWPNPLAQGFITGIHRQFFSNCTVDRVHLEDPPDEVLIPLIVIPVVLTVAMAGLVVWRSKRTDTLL

Assay [4] has as its target T4, human calcitonin (a) receptor (human) (UniProt P30988).
T4 sequence (looked up): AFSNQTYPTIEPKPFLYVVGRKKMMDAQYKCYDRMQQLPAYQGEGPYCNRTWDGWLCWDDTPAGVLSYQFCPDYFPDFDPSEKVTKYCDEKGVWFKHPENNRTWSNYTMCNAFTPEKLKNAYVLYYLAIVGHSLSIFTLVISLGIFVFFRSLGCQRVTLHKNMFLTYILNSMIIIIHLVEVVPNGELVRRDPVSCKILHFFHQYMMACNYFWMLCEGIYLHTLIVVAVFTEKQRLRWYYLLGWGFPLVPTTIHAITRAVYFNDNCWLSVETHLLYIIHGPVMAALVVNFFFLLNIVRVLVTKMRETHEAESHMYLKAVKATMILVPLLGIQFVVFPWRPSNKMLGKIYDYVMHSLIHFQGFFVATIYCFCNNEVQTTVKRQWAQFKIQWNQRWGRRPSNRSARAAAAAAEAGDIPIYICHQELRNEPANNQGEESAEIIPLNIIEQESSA

The target of the next assay is T5, Amylin receptor human (human, UniProt P30988 25-474; O60896 24-148, limits assumed).
T5 sequence (looked up) 1: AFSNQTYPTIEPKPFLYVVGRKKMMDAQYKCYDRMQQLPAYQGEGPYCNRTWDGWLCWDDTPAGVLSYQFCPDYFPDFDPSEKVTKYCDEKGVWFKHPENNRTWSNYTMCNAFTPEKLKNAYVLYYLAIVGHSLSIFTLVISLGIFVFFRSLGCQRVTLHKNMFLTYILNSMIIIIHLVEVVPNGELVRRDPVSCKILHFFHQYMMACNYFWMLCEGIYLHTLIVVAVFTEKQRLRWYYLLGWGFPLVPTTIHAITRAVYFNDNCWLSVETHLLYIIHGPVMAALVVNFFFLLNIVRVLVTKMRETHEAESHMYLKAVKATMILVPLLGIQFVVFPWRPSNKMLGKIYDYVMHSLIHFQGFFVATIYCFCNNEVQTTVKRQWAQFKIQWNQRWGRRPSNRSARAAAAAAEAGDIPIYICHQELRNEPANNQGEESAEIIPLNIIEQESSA
T5 sequence (looked up) 2: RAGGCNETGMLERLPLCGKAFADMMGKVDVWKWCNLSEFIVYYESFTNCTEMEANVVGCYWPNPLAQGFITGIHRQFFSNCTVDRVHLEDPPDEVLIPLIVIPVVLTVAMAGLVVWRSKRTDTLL

Assay [5] has as its target T1, human amylin 3(a) receptor (human calcitonin receptor co-expressed with RAMP-3) (human). This is another data set of the same source.
Another assay addresses T6, human amylin receptor (human, UniProt P30988 25-474; O60896 24-148, limits assumed).
T6 sequence (looked up) 1: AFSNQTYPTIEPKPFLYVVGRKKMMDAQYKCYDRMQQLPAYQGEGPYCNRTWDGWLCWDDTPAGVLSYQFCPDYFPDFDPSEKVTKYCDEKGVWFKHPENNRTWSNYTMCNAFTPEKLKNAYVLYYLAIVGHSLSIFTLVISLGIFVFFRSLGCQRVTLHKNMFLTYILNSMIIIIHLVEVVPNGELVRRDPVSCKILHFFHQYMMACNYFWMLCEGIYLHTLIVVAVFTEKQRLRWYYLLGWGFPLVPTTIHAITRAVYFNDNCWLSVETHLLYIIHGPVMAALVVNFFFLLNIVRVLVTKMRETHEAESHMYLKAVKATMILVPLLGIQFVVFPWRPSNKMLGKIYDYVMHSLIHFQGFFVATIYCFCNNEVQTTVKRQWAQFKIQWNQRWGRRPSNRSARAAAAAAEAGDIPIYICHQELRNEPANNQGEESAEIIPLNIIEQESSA
T6 sequence (looked up) 2: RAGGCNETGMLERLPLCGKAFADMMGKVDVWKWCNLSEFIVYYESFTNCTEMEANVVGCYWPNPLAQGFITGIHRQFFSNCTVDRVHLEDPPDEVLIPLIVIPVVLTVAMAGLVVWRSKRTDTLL

Read-outs that look alike come from different tables or passages of the source. Positions of bridges follow the written chain, without caps; N, C: chain ends. *: point of attachment. C20 diacid = O=C(O)CCCCCCCCCCCCCCCCCCC(=O)*

B1: N-alpha-(19-carboxynonadecanoyl)-Glu-Glu-Arg-[Glu1,Glu14,His17,Pro37]-pramlintide (peptide)
peptide: {C20 diacid}-EERECNTATCATQRLAEFLHHSSNNFGPILPPTNVGSNTP-NH2
modifications: disulfide 5-10
SMILES: CC[C@H](C)[C@H](NC(=O)[C@@H]1CCCN1C(=O)CNC(=O)[C@H](Cc1ccccc1)NC(=O)[C@H](CC(N)=O)NC(=O)[C@H](CC(N)=O)NC(=O)[C@H](CO)NC(=O)[C@H](CO)NC(=O)[C@H](Cc1c[nH]cn1)NC(=O)[C@H](Cc1c[nH]cn1)NC(=O)[C@H](CC(C)C)NC(=O)[C@H](Cc1ccccc1)NC(=O)[C@H](CCC(=O)O)NC(=O)[C@H](C)NC(=O)[C@H](CC(C)C)NC(=O)[C@H](CCCNC(=N)N)NC(=O)[C@H](CCC(N)=O)NC(=O)[C@@H](NC(=O)[C@H](C)NC(=O)[C@@H]1CSSC[C@H](NC(=O)[C@H](CCC(=O)O)NC(=O)[C@H](CCCNC(=N)N)NC(=O)[C@H](CCC(=O)O)NC(=O)[C@H](CCC(=O)O)NC(=O)CCCCCCCCCCCCCCCCCCC(=O)O)C(=O)N[C@@H](CC(N)=O)C(=O)N[C@@H]([C@@H](C)O)C(=O)N[C@@H](C)C(=O)N[C@@H]([C@@H](C)O)C(=O)N1)[C@@H](C)O)C(=O)N[C@@H](CC(C)C)C(=O)N1CCC[C@H]1C(=O)N1CCC[C@H]1C(=O)N[C@H](C(=O)N[C@@H](CC(N)=O)C(=O)N[C@H](C(=O)NCC(=O)N[C@@H](CO)C(=O)N[C@@H](CC(N)=O)C(=O)N[C@H](C(=O)N1CCC[C@H]1C(N)=O)[C@@H](C)O)C(C)C)[C@@H](C)O
B1: the Amylin receptor human EC50 (pM) (in assay [1]; in assay [2]; with Amylin receptor human; in assay [5]; with human amylin receptor) was 288 pM each time. The Amylin receptor human EC50 in assay [3] amounted to 0.288 nM. In addition, the CTa receptor human EC50 in assay [4] came to 0.443 nM. In addition, the CTa receptor human EC50 (pM) in assay [4] turned out to be 443 pM.
